Laboratory results taken from patent US20240218011A1 (FIREFLY BIO, published 2024).

Target: human LPAM1 (human, UniProt P26010 20-798)
Experiment: cell-based or functional assay

human LPAM1, sequence (P26010 20-798): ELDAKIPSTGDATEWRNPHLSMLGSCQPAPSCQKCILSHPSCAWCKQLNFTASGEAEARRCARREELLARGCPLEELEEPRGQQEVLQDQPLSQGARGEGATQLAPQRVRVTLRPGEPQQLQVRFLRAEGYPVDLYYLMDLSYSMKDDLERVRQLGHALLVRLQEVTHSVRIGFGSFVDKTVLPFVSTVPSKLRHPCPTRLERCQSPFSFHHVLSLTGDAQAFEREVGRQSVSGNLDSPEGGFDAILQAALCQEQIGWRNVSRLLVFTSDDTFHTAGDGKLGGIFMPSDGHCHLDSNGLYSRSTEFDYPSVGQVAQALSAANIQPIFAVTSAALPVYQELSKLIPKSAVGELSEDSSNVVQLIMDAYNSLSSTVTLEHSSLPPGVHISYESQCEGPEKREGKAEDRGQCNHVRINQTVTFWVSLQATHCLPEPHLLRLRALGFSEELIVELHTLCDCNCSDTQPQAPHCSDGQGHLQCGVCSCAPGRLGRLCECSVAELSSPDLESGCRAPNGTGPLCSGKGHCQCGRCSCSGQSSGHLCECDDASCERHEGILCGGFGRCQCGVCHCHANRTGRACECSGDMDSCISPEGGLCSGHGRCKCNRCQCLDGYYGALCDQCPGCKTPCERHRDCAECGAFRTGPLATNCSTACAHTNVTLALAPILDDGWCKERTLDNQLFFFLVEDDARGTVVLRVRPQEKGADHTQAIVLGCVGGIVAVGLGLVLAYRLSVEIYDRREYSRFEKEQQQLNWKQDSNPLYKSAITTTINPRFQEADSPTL

B1: Anti-LPAM-1-Linker 1-Bud (vedolizumab conjugated to GR agonist budesonide with Linker 1) (antibody, human IgG1, kappa, V domains shown)
VH: QVQLVQSGAEVKKPGASVKVSCKGSGYTFTSYWMHWVRQAPGQRLEWIGEIDPSESNTNYNQKFKGRVTLTVDISASTAYMELSSLRSEDTAVYYCARGGYDGWDYAIDYWGQGTLVTVSS
VL: DVVMTQSPLSLPVTPGEPASISCRSSQSLAKSYGNTYLSWYLQKPGQSPQLLIYGISNRFSGVPDRFSGSGSGTDFTLKISRVEAEDVGVYYCLQGTHQPYTFGQGTKVEIKR
modifications: budesonide attached through Linker 1; residues and chain not stated
Fold induction Anti-LPAM1 conjugate at 0.0064 nM; luciferase reporter: 1 fold
Fold induction Anti-LPAM1 conjugate at 0.032 nM; luciferase reporter: 1 fold
Fold induction Anti-LPAM1 conjugate at 0.16 nM; luciferase reporter: 20 fold
Fold induction Anti-LPAM1 conjugate at 0.8 nM; luciferase reporter: 121 fold
Fold induction Anti-LPAM1 conjugate at 4 nM; luciferase reporter: 147 fold
Fold induction Anti-LPAM1 conjugate at 20 nM; luciferase reporter: 177 fold
Fold induction Anti-LPAM1 conjugate at 100 nM; luciferase reporter: 240 fold
Fold induction Anti-LPAM1 conjugate at 500 nM; luciferase reporter: 361 fold
